Values of other authors, collected in patent US12377133B2 (Ascendis Pharma Growth Disorders A/S, priority 2019, dated 2025).
Bridges are numbered along the chain shown (N, C = ends). Where no end group is shown, it is not given here.

Conditions: Lorget et al. 2012

With “BMN111: recombinant CNP-39: 37 C-terminal amino acids of human CNP-53 plus glycine and proline added at the N-terminus (PGQEHPNARKYKGANKKGLSKGCFGLKLDRIGSMSGLGC; disulfide 23-39; chains of the INN, looked up)” as the substance, how does the half-life read?
Its half-life is 20 min.
